Reference: the supplement of paper PMC9112550, “Optimization of the antimicrobial peptide Bac7 by deep mutational scanning” (BMC Biology, 2022)

Test system: Escherichia coli TOP10
Assay: shrunken log2 fold change of peptide-encoding DNA abundance (4.5 h post-induction vs induction); higher = less antimicrobial activity (less host growth inhibition)
Details: time post-induction: 4.5 h; library: site-saturation at positions 5, 18, 19, 20
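Also: peptides expressed intracellularly from a pBAD plasmid library in pooled LB shake-flask culture, induced with 0.3% L-arabinose, DNA abundance read by NGS, three biological replicates, DESeq2 with apeglm shrinkage.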

RRIRPRPPRLPRPRPRPTHTPRP
shrunken log2 fold change: 0.13

RRIRPRPPRLPRPRPRPTIAPRP
shrunken log2 fold change: -0.0457

RRIRPRPPRLPRPRPRPTIHPRP
shrunken log2 fold change: -0.428

RRIRPRPPRLPRPRPRPTIRPRP
shrunken log2 fold change: 0.172

RRIRPRPPRLPRPRPRPTIYPRP
shrunken log2 fold change: -0.413

RRIRPRPPRLPRPRPRPTKDPRP
shrunken log2 fold change: -0.166

RRIRPRPPRLPRPRPRPTKNPRP
shrunken log2 fold change: 0.0886

RRIRPRPPRLPRPRPRPTLTPRP
shrunken log2 fold change: 1.22

RRIRPRPPRLPRPRPRPTMHPRP
shrunken log2 fold change: 0.0766

RRIRPRPPRLPRPRPRPTMSPRP
shrunken log2 fold change: 0.0176

RRIRPRPPRLPRPRPRPTMTPRP
shrunken log2 fold change: 0.0633

RRIRPRPPRLPRPRPRPTNEPRP
shrunken log2 fold change: 0.0205

RRIRPRPPRLPRPRPRPTNNPRP
shrunken log2 fold change: -0.329

RRIRPRPPRLPRPRPRPTQAPRP
shrunken log2 fold change: 0.0364

RRIRPRPPRLPRPRPRPTQHPRP
shrunken log2 fold change: 0.262

RRIRPRPPRLPRPRPRPTQMPRP
shrunken log2 fold change: 0.395

RRIRPRPPRLPRPRPRPTRFPRP
shrunken log2 fold change: 0.41

RRIRPRPPRLPRPRPRPTSGPRP
shrunken log2 fold change: 0.173

RRIRPRPPRLPRPRPRPTTVPRP
shrunken log2 fold change: 0.0207

RRIRPRPPRLPRPRPRPTVQPRP
shrunken log2 fold change: 0.182

RRIRPRPPRLPRPRPRPTWYPRP
shrunken log2 fold change: -0.133

RRIRPRPPRLPRPRPRPTYRPRP
shrunken log2 fold change: -0.236

RRIRPRPPRLPRPRPRPTYSPRP
shrunken log2 fold change: -0.104

RRIRPRPPRLPRPRPRPVAMPRP
shrunken log2 fold change: 0.0478

RRIRPRPPRLPRPRPRPVANPRP
shrunken log2 fold change: 0.495

RRIRPRPPRLPRPRPRPVDNPRP
shrunken log2 fold change: 0.0523

RRIRPRPPRLPRPRPRPVEFPRP
shrunken log2 fold change: 0.068

RRIRPRPPRLPRPRPRPVHTPRP
shrunken log2 fold change: -0.036

RRIRPRPPRLPRPRPRPVIGPRP
shrunken log2 fold change: 0.0389

RRIRPRPPRLPRPRPRPVIIPRP
shrunken log2 fold change: -0.286

RRIRPRPPRLPRPRPRPVIRPRP
shrunken log2 fold change: -0.074

RRIRPRPPRLPRPRPRPVKYPRP
shrunken log2 fold change: -0.303

RRIRPRPPRLPRPRPRPVLFPRP
shrunken log2 fold change: 0.118

RRIRPRPPRLPRPRPRPVMAPRP
shrunken log2 fold change: -0.128

RRIRPRPPRLPRPRPRPVMHPRP
shrunken log2 fold change: 0.15

RRIRPRPPRLPRPRPRPVNCPRP
shrunken log2 fold change: -0.118

RRIRPRPPRLPRPRPRPVNEPRP
shrunken log2 fold change: -0.00503

RRIRPRPPRLPRPRPRPVNTPRP
shrunken log2 fold change: -0.634

RRIRPRPPRLPRPRPRPVPCPRP
shrunken log2 fold change: 0.0816

RRIRPRPPRLPRPRPRPVQAPRP
shrunken log2 fold change: -0.013

RRIRPRPPRLPRPRPRPVQFPRP
shrunken log2 fold change: 0.197

RRIRPRPPRLPRPRPRPVQMPRP
shrunken log2 fold change: 0.0287

RRIRPRPPRLPRPRPRPWAHPRP
shrunken log2 fold change: -0.00675

RRIRPRPPRLPRPRPRPWCCPRP
shrunken log2 fold change: -0.0996

RRIRPRPPRLPRPRPRPWCFPRP
shrunken log2 fold change: -0.295

RRIRPRPPRLPRPRPRPWCSPRP
shrunken log2 fold change: -0.201

RRIRPRPPRLPRPRPRPWCYPRP
shrunken log2 fold change: -0.143

RRIRPRPPRLPRPRPRPWDQPRP
shrunken log2 fold change: -0.0786

RRIRPRPPRLPRPRPRPWEYPRP
shrunken log2 fold change: -0.05

RRIRPRPPRLPRPRPRPWFDPRP
shrunken log2 fold change: -0.278

RRIRPRPPRLPRPRPRPWFFPRP
shrunken log2 fold change: -0.185

RRIRPRPPRLPRPRPRPWFGPRP
shrunken log2 fold change: -0.0238

RRIRPRPPRLPRPRPRPWFIPRP
shrunken log2 fold change: -0.298

RRIRPRPPRLPRPRPRPWHCPRP
shrunken log2 fold change: -0.0956

RRIRPRPPRLPRPRPRPWHFPRP
shrunken log2 fold change: -0.12

RRIRPRPPRLPRPRPRPWINPRP
shrunken log2 fold change: -0.719

RRIRPRPPRLPRPRPRPWISPRP
shrunken log2 fold change: -0.161

RRIRPRPPRLPRPRPRPWITPRP
shrunken log2 fold change: -0.469

RRIRPRPPRLPRPRPRPWNAPRP
shrunken log2 fold change: -0.118

RRIRPRPPRLPRPRPRPWPSPRP
shrunken log2 fold change: -0.125

RRIRPRPPRLPRPRPRPWQCPRP
shrunken log2 fold change: -0.0562

RRIRPRPPRLPRPRPRPWQKPRP
shrunken log2 fold change: -0.179

RRIRPRPPRLPRPRPRPWRYPRP
shrunken log2 fold change: -0.0238

RRIRPRPPRLPRPRPRPWSCPRP
shrunken log2 fold change: -0.165

RRIRPRPPRLPRPRPRPWSEPRP
shrunken log2 fold change: -0.0275

RRIRPRPPRLPRPRPRPWSWPRP
shrunken log2 fold change: 0.217

RRIRPRPPRLPRPRPRPWSYPRP
shrunken log2 fold change: -0.214

RRIRPRPPRLPRPRPRPWTKPRP
shrunken log2 fold change: 0.0459

RRIRPRPPRLPRPRPRPWVAPRP
shrunken log2 fold change: 0.014

RRIRPRPPRLPRPRPRPWVSPRP
shrunken log2 fold change: 0.0233

RRIRPRPPRLPRPRPRPWVWPRP
shrunken log2 fold change: 0.267

RRIRPRPPRLPRPRPRPWYHPRP
shrunken log2 fold change: -0.516

RRIRPRPPRLPRPRPRPYCCPRP
shrunken log2 fold change: -0.384

RRIRPRPPRLPRPRPRPYEMPRP
shrunken log2 fold change: -0.281

RRIRPRPPRLPRPRPRPYFPPRP
shrunken log2 fold change: -0.26

RRIRPRPPRLPRPRPRPYFWPRP
shrunken log2 fold change: -0.137

RRIRPRPPRLPRPRPRPYHAPRP
shrunken log2 fold change: -0.19

RRIRPRPPRLPRPRPRPYIDPRP
shrunken log2 fold change: -0.331

RRIRPRPPRLPRPRPRPYKLPRP
shrunken log2 fold change: -0.313

RRIRPRPPRLPRPRPRPYKPPRP
shrunken log2 fold change: -0.481

RRIRPRPPRLPRPRPRPYKSPRP
shrunken log2 fold change: -0.0798

RRIRPRPPRLPRPRPRPYLAPRP
shrunken log2 fold change: -0.528

RRIRPRPPRLPRPRPRPYLQPRP
shrunken log2 fold change: -0.831

RRIRPRPPRLPRPRPRPYMQPRP
shrunken log2 fold change: -0.681

RRIRPRPPRLPRPRPRPYMRPRP
shrunken log2 fold change: -0.000384

RRIRPRPPRLPRPRPRPYQGPRP
shrunken log2 fold change: -0.0345

RRIRPRPPRLPRPRPRPYQKPRP
shrunken log2 fold change: 0.0104

RRIRPRPPRLPRPRPRPYRTPRP
shrunken log2 fold change: -0.111

RRIRPRPPRLPRPRPRPYSDPRP
shrunken log2 fold change: -0.713

RRIRPRPPRLPRPRPRPYTEPRP
shrunken log2 fold change: -0.349

RRIRPRPPRLPRPRPRPYWRPRP
shrunken log2 fold change: -0.106

RRIRPRPPRLPRPRPRPYYDPRP
shrunken log2 fold change: -0.745

RRIRQRPPRLPRPRPRPACMPRP
shrunken log2 fold change: -0.294

RRIRQRPPRLPRPRPRPACNPRP
shrunken log2 fold change: 0.0438

RRIRQRPPRLPRPRPRPACVPRP
shrunken log2 fold change: 0.0809

RRIRQRPPRLPRPRPRPADKPRP
shrunken log2 fold change: -0.137

RRIRQRPPRLPRPRPRPAFFPRP
shrunken log2 fold change: 0.11

RRIRQRPPRLPRPRPRPAFYPRP
shrunken log2 fold change: -0.0263

RRIRQRPPRLPRPRPRPAGRPRP
shrunken log2 fold change: 0.978

RRIRQRPPRLPRPRPRPAHQPRP
shrunken log2 fold change: 0.0203

RRIRQRPPRLPRPRPRPAIMPRP
shrunken log2 fold change: -0.159

RRIRQRPPRLPRPRPRPAIRPRP
shrunken log2 fold change: -0.0284

RRIRQRPPRLPRPRPRPAKCPRP
shrunken log2 fold change: 0.0161

RRIRQRPPRLPRPRPRPALIPRP
shrunken log2 fold change: 0.144

RRIRQRPPRLPRPRPRPALLPRP
shrunken log2 fold change: -0.0269

RRIRQRPPRLPRPRPRPALTPRP
shrunken log2 fold change: 0.128

RRIRQRPPRLPRPRPRPAMAPRP
shrunken log2 fold change: -0.134

RRIRQRPPRLPRPRPRPAMHPRP
shrunken log2 fold change: -0.125

RRIRQRPPRLPRPRPRPAMQPRP
shrunken log2 fold change: 0.109

RRIRQRPPRLPRPRPRPASAPRP
shrunken log2 fold change: 0.196

RRIRQRPPRLPRPRPRPASFPRP
shrunken log2 fold change: 0.0572

RRIRQRPPRLPRPRPRPASTPRP
shrunken log2 fold change: -0.0855

RRIRQRPPRLPRPRPRPATYPRP
shrunken log2 fold change: -0.287

RRIRQRPPRLPRPRPRPAWMPRP
shrunken log2 fold change: 0.0361

RRIRQRPPRLPRPRPRPAWSPRP
shrunken log2 fold change: 0.183

RRIRQRPPRLPRPRPRPAWTPRP
shrunken log2 fold change: -0.177

RRIRQRPPRLPRPRPRPAYNPRP
shrunken log2 fold change: 0.018

RRIRQRPPRLPRPRPRPCAAPRP
shrunken log2 fold change: 0.339

RRIRQRPPRLPRPRPRPCAIPRP
shrunken log2 fold change: -0.0067

RRIRQRPPRLPRPRPRPCCKPRP
shrunken log2 fold change: -0.00783

RRIRQRPPRLPRPRPRPCDEPRP
shrunken log2 fold change: 0.0697

RRIRQRPPRLPRPRPRPCEAPRP
shrunken log2 fold change: 0.00535

RRIRQRPPRLPRPRPRPCFLPRP
shrunken log2 fold change: 0.115

RRIRQRPPRLPRPRPRPCGAPRP
shrunken log2 fold change: 0.133

RRIRQRPPRLPRPRPRPCGSPRP
shrunken log2 fold change: -0.000687

RRIRQRPPRLPRPRPRPCICPRP
shrunken log2 fold change: -0.542

RRIRQRPPRLPRPRPRPCIDPRP
shrunken log2 fold change: -0.424

RRIRQRPPRLPRPRPRPCIIPRP
shrunken log2 fold change: -0.0528

RRIRQRPPRLPRPRPRPCKMPRP
shrunken log2 fold change: 0.0276

RRIRQRPPRLPRPRPRPCLLPRP
shrunken log2 fold change: -2.33

RRIRQRPPRLPRPRPRPCLSPRP
shrunken log2 fold change: -0.383

RRIRQRPPRLPRPRPRPCMCPRP
shrunken log2 fold change: -0.147

RRIRQRPPRLPRPRPRPCMKPRP
shrunken log2 fold change: -0.0118

RRIRQRPPRLPRPRPRPCNMPRP
shrunken log2 fold change: 0.00148

RRIRQRPPRLPRPRPRPCNTPRP
shrunken log2 fold change: -0.257

RRIRQRPPRLPRPRPRPCRQPRP
shrunken log2 fold change: 0.0342

RRIRQRPPRLPRPRPRPCSKPRP
shrunken log2 fold change: -0.18

RRIRQRPPRLPRPRPRPCSTPRP
shrunken log2 fold change: 0.0062

RRIRQRPPRLPRPRPRPCWCPRP
shrunken log2 fold change: -0.0854

RRIRQRPPRLPRPRPRPCWKPRP
shrunken log2 fold change: 0.111

RRIRQRPPRLPRPRPRPCYCPRP
shrunken log2 fold change: -0.338

RRIRQRPPRLPRPRPRPCYHPRP
shrunken log2 fold change: -0.947

RRIRQRPPRLPRPRPRPDAEPRP
shrunken log2 fold change: 0.105

RRIRQRPPRLPRPRPRPDALPRP
shrunken log2 fold change: -0.0392

RRIRQRPPRLPRPRPRPDCLPRP
shrunken log2 fold change: -0.793

RRIRQRPPRLPRPRPRPDESPRP
shrunken log2 fold change: 0.0454

RRIRQRPPRLPRPRPRPDFKPRP
shrunken log2 fold change: -0.229

RRIRQRPPRLPRPRPRPDFYPRP
shrunken log2 fold change: -0.288

RRIRQRPPRLPRPRPRPDGDPRP
shrunken log2 fold change: -0.0112

RRIRQRPPRLPRPRPRPDGEPRP
shrunken log2 fold change: 0.117
